The record followed here is US20220153848A1 (DRAGONFLY THERAPEUTICS, published 2022).

The test has as its target c-MET on the surface of HT29 and HCT-116 human colon cancer cells (human, UniProt P08581 25-1390). Nature of the test: cell-based or functional assay.

c-MET on the surface of HT29 and HCT-116 human colon cancer cells, sequence (P08581 25-1390 limits assumed): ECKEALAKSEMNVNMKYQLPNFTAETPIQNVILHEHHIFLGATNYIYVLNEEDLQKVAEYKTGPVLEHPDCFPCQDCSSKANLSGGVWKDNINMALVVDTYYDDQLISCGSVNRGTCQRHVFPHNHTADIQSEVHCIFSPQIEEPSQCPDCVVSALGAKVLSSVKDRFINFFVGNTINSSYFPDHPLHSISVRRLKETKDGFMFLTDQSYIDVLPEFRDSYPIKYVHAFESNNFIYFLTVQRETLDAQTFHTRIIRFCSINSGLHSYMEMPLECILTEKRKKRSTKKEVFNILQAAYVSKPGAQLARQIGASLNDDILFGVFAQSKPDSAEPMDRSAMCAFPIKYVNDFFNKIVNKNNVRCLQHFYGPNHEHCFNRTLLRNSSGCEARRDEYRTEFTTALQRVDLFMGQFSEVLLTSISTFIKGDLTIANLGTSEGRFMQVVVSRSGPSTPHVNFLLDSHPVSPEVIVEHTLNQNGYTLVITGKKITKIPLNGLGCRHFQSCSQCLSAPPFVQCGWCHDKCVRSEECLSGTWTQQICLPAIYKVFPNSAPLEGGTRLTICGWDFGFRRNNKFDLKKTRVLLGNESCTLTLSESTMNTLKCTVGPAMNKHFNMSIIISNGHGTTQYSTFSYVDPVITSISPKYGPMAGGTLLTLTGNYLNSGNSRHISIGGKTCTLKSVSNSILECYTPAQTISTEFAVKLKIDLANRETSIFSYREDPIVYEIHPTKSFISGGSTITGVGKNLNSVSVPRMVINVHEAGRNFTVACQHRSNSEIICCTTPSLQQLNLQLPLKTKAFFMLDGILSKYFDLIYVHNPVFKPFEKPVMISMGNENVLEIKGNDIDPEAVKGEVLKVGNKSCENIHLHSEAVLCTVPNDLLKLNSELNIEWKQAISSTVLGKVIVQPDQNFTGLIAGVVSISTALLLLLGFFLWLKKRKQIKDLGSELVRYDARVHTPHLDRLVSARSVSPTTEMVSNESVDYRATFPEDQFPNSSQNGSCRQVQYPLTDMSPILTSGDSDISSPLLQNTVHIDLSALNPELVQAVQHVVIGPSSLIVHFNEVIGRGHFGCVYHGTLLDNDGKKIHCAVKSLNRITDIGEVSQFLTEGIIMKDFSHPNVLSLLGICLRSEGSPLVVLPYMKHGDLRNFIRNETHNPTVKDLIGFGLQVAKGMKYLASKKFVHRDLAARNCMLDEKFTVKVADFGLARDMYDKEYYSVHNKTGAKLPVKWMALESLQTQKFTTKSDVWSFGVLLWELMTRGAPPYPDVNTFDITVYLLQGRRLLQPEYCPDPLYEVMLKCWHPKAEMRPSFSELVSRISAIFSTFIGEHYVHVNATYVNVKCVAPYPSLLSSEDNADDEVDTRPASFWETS

B1: A49MI-Duobody-TriNKET-Onartuzumab (bispecific antibody, human IgG1, kappa)
heavy 1: not shown
light 1: DIQMTQSPSSLSASVGDRVTITCKSSQSLLYTSSQKNYLAWYQQKPGKAPKLLIYWASTRESGVPSRFSGSGSGTDFTLTISSLQPEDFATYYCQQYYAYPWTFGQGTKVEIKRTVAAPSVFIFPPSDEQLKSGTASVVCLLNNFYPREAKVQWKVDNALQSGNSQESVTEQDSKDSTYSLSSTLTLSKADYEKHKVYACEVTHQGLSSPVTKSFNRGEC
heavy 2: not shown
light 2: DIQMTQSPSSVSASVGDRVTITCRASQGISSWLAWYQQKPGKAPKLLIYAASSLQSGVPSRFSGSGSGTDFTLTISSLQPEDFATYYCQQGVSFPRTFGGGTKVEIKRTVAAPSVFIFPPSDEQLKSGTASVVCLLNNFYPREAKVQWKVDNALQSGNSQESVTEQDSKDSTYSLSSTLTLSKADYEKHKVYACEVTHQGLSSPVTKSFNRGEC
As to B1, the “EC50 of human NK cell lysis of c-MET positive target cells (DELFIA cytotoxicity assay)” value (“EC50” below) was less than 1 nM.

B2: A49MI-Duobody-TriNKET-Emibetuzumab (bispecific antibody, human IgG1, kappa)
heavy 1: not shown
light 1: DIQMTQSPSSLSASVGDRVTITCSVSSSVSSIYLHWYQQKPGKAPKLLIYSTSNLASGVPSRFSGSGSGTDFTLTISSLQPEDFATYYCQVYSGYPLTFGGGTKVEIKRTVAAPSVFIFPPSDEQLKSGTASVVCLLNNFYPREAKVQWKVDNALQSGNSQESVTEQDSKDSTYSLSSTLTLSKADYEKHKVYACEVTHQGLSSPVTKSFNRGEC
heavy 2: not shown
light 2: B1 light 2
Take B2: the “EC50” value is less than 1 nM.

B3: A49MI-Duobody-TriNKET-ABT-700 (bispecific antibody, human IgG1, kappa)
heavy 1: not shown
light 1: not shown
heavy 2: not shown
light 2: B1 light 2
Regarding B3, the “EC50” value was less than 1 nM.
